Laboratory results reported in publication PMC10810746.

Biological target: RbcL (large subunit of form I ribulose 1,5-bisphosphate carboxylase oxygenase) (Synechococcus sp. PCC 7335)
Experiment: cryo-EM structure; single-particle cryo-EM of form I Rubisco found in the same fraction; 2.35 Å, D4 symmetry

stoichiometry N: 8
Substance: RbcL (large subunit of form I ribulose 1,5-bisphosphate carboxylase oxygenase) (enzyme)
